Results: doi:10.1101/2024.11.26.625568, “Structural and functional insights into activation and regulation of the dynein-dynactin-NuMA complex” (bioRxiv, 2024)

B1: NuMA 1-505 (domain or fragment, human, UniProt Q14980 1-505, looked up)
chain: MTLHATRGAALLSWVNSLHVADPVEAVLQLQDCSIFIKIIDRIHGTEEGQQILKQPVSERLDFVCSFLQKNRKHPSSPECLVSAQKVLEGSELELAKMTMLLLYHSTMSSKSPRDWEQFEYKIQAELAVILKFVLDHEDGLNLNEDLENFLQKAPVPSTCSSTFPEELSPPSHQAKREIRFLELQKVASSSSGNNFLSGSPASPMGDILQTPQFQMRRLKKQLADERSNRDELELELAENRKLLTEKDAQIAMMQQRIDRLALLNEKQAASPLEPKELEELRDKNESLTMRLHETLKQCQDLKTEKSQMDRKINQLSEENGDLSFKLREFASHLQQLQDALNELTEEHSKATQEWLEKQAQLEKELSAALQDKKCLEEKNEILQGKLSQLEEHLSQLQDNPPQEKGEVLGDVLQLETLKQEAATLAANNTQLQARVEMLETERGQQEAKLLAERGHFEEEKQQLSSLITDLQSSISNLSQAKEELEQASQAHGARLTAQVASLTS
modifications: LD555 dye on the SNAP tag
notes: NuMA (nuclear mitotic apparatus protein), human, a.a; The methods say 'C-terminal SNAP or mNG'; also called NuMA N-terminal construct; source: SF9 insect cells (baculovirus), purified (IgG Sepharose, TEV elution, Superose 6 SEC); not shown: His6, N-terminal, cleaved; ZZ, N-terminal, cleaved; SNAP, C-terminal, kept
B2: NuMA 1-705 (domain or fragment, human, UniProt Q14980 1-705, looked up)
chain: MTLHATRGAALLSWVNSLHVADPVEAVLQLQDCSIFIKIIDRIHGTEEGQQILKQPVSERLDFVCSFLQKNRKHPSSPECLVSAQKVLEGSELELAKMTMLLLYHSTMSSKSPRDWEQFEYKIQAELAVILKFVLDHEDGLNLNEDLENFLQKAPVPSTCSSTFPEELSPPSHQAKREIRFLELQKVASSSSGNNFLSGSPASPMGDILQTPQFQMRRLKKQLADERSNRDELELELAENRKLLTEKDAQIAMMQQRIDRLALLNEKQAASPLEPKELEELRDKNESLTMRLHETLKQCQDLKTEKSQMDRKINQLSEENGDLSFKLREFASHLQQLQDALNELTEEHSKATQEWLEKQAQLEKELSAALQDKKCLEEKNEILQGKLSQLEEHLSQLQDNPPQEKGEVLGDVLQLETLKQEAATLAANNTQLQARVEMLETERGQQEAKLLAERGHFEEEKQQLSSLITDLQSSISNLSQAKEELEQASQAHGARLTAQVASLTSELTTLNATIQQQDQELAGLKQQAKEKQAQLAQTLQQQEQASQGLRHQVEQLSSSLKQKEQQLKEVAEKQEATRQDHAQQLATAAEEREASLRERDAALKQLEALEKEKAAKLEILQQQLQVANEARDSAQTSVTQAQREKAELSRKVEELQACVETARQEQHEAQAQVAELELQLRSEQQKATEKERVAQEKDQLQEQLQ
modifications: LD555 dye on the SNAP tag
notes: NuMA (nuclear mitotic apparatus protein), human, a.a; Construct used for the cryo-EM structure of the DDN complex; also called NuMA N-terminal construct; source: SF9 insect cells (baculovirus), purified (IgG Sepharose, TEV elution, Superose 6 SEC); not shown: His6, N-terminal, cleaved; ZZ, N-terminal, cleaved; SNAP, C-terminal, kept
B3: NuMA MTBD2 (domain or fragment, human, UniProt Q14980 2002-2115, looked up)
chain: ESKKATSCFPRPMTPRDRHEGRKQSTTEAQKKAAPASTKQADRRQSMAFSILNTPKKLGNSLLRRGASKKALSKASPNTRSGTRRSPRIATTTASAATAAAIGATPRAKGKAKH
notes: NuMA, human, a.a; 2002-2115; source: SF9 insect cells (baculovirus), purified (IgG Sepharose, TEV elution, Superdex 200 SEC); not shown: His6, N-terminal, cleaved; ZZ, N-terminal, cleaved; MBP, N-terminal, cleaved; mNG, C-terminal, kept
B4: NuMA C (domain or fragment, human, UniProt Q14980 1700-2115, looked up)
chain: FQVATDALKSREPQAKPQLDLSIDSLDLSCEEGTPLSITSKLPRTQPDGTSVPGEPASPISQRLPPKVESLESLYFTPIPARSQAPLESSLDSLGDVFLDSGRKTRSARRRTTQIINITMTKKLDVEEPDSANSSFYSTRSAPASQASLRATSSTQSLARLGSPDYGNSALLSLPGYRPTTRSSARRSQAGVSSGAPPGRNSFYMGTCQDEPEQLDDWNRIAELQQRNRVCPPHLKTCYPLESRPSLSLGTITDEEMKTGDPQETLRRASMQPIQIAEGTGITTRQQRKRVSLEPHQGPGTPESKKATSCFPRPMTPRDRHEGRKQSTTEAQKKAAPASTKQADRRQSMAFSILNTPKKLGNSLLRRGASKKALSKASPNTRSGTRRSPRIATTTASAATAAAIGATPRAKGKAKH
notes: NuMA, human, C-terminal region a.a; 1700-2115; also called NuMA C-terminus; NuMA C-mNG; source: SF9 insect cells (baculovirus), purified (IgG Sepharose, TEV elution, Superdex 200 SEC); not shown: His6, N-terminal, cleaved; ZZ, N-terminal, cleaved; MBP, N-terminal, cleaved; mNG, C-terminal, kept
B5: NuMA 1-1699 (domain or fragment, human, UniProt Q14980 1-1699, looked up)
chain: MTLHATRGAALLSWVNSLHVADPVEAVLQLQDCSIFIKIIDRIHGTEEGQQILKQPVSERLDFVCSFLQKNRKHPSSPECLVSAQKVLEGSELELAKMTMLLLYHSTMSSKSPRDWEQFEYKIQAELAVILKFVLDHEDGLNLNEDLENFLQKAPVPSTCSSTFPEELSPPSHQAKREIRFLELQKVASSSSGNNFLSGSPASPMGDILQTPQFQMRRLKKQLADERSNRDELELELAENRKLLTEKDAQIAMMQQRIDRLALLNEKQAASPLEPKELEELRDKNESLTMRLHETLKQCQDLKTEKSQMDRKINQLSEENGDLSFKLREFASHLQQLQDALNELTEEHSKATQEWLEKQAQLEKELSAALQDKKCLEEKNEILQGKLSQLEEHLSQLQDNPPQEKGEVLGDVLQLETLKQEAATLAANNTQLQARVEMLETERGQQEAKLLAERGHFEEEKQQLSSLITDLQSSISNLSQAKEELEQASQAHGARLTAQVASLTSELTTLNATIQQQDQELAGLKQQAKEKQAQLAQTLQQQEQASQGLRHQVEQLSSSLKQKEQQLKEVAEKQEATRQDHAQQLATAAEEREASLRERDAALKQLEALEKEKAAKLEILQQQLQVANEARDSAQTSVTQAQREKAELSRKVEELQACVETARQEQHEAQAQVAELELQLRSEQQKATEKERVAQEKDQLQEQLQALKESLKVTKGSLEEEKRRAADALEEQQRCISELKAETRSLVEQHKRERKELEEERAGRKGLEARLQQLGEAHQAETEVLRRELAEAMAAQHTAESECEQLVKEVAAWRERYEDSQQEEAQYGAMFQEQLMTLKEECEKARQELQEAKEKVAGIESHSELQISRQQNELAELHANLARALQQVQEKEVRAQKLADDLSTLQEKMAATSKEVARLETLVRKAGEQQETASRELVKEPARAGDRQPEWLEEQQGRQFCSTQAALQAMEREAEQMGNELERLRAALMESQGQQQEERGQQEREVARLTQERGRAQADLALEKAARAELEMRLQNALNEQRVEFATLQEALAHALTEKEGKDQELAKLRGLEAAQIKELEELRQTVKQLKEQLAKKEKEHASGSGAQSEAAGRTEPTGPKLEALRAEVSKLEQQCQKQQEQADSLERSLEAERASRAERDSALETLQGQLEEKAQELGHSQSALASAQRELAAFRTKVQDHSKAEDEWKAQVARGRQEAERKNSLISSLEEEVSILNRQVLEKEGESKELKRLVMAESEKSQKLEERLRLLQAETASNSARAAERSSALREEVQSLREEAEKQRVASENLRQELTSQAERAEELGQELKAWQEKFFQKEQALSTLQLEHTSTQALVSELLPAKHLCQQLQAEQAAAEKRHREELEQSKQAAGGLRAELLRAQRELGELIPLRQKVAEQERTAQQLRAEKASYAEQLSMLKKAHGLLAEENRGLGERANLGRQFLEVELDQAREKYVQELAAVRADAETRLAEVQREAQSTARELEVMTAKYEGAKVKVLEERQRFQEERQKLTAQVEQLEVFQREQTKQVEELSKKLADSDQASKVQQQKLKAVQAQGGESQQEAQRLQAQLNELQAQLSQKEQAAEHYKLQMEKAKTHYDAKKQQNQELQEQLRSLEQLQKENKELRAEAERLGHELQQAGLKTKEAEQTCRHLTAQVRSLEAQVAHADQQLRDLGK
modifications: LD555 dye on the SNAP tag
notes: NuMA (nuclear mitotic apparatus protein), human, a.a; 1-1699; also called NuMA N-terminal construct; source: SF9 insect cells (baculovirus), purified (IgG Sepharose, TEV elution, Superose 6 SEC); not shown: His6, N-terminal, cleaved; ZZ, N-terminal, cleaved; SNAP, C-terminal, kept
B6: TPR domain of LGN (a.a. 1-409) (domain or fragment, human, UniProt P81274 1-409, looked up)
chain: MEENLISMREDHSFHVRYRMEASCLELALEGERLCKSGDCRAGVSFFEAAVQVGTEDLKTLSAIYSQLGNAYFYLHDYAKALEYHHHDLTLARTIGDQLGEAKASGNLGNTLKVLGNFDEAIVCCQRHLDISRELNDKVGEARALYNLGNVYHAKGKSFGCPGPQDVGEFPEEVRDALQAAVDFYEENLSLVTALGDRAAQGRAFGNLGNTHYLLGNFRDAVIAHEQRLLIAKEFGDKAAERRAYSNLGNAYIFLGEFETASEYYKKTLLLARQLKDRAVEAQSCYSLGNTYTLLQDYEKAIDYHLKHLAIAQELNDRIGEGRACWSLGNAYTALGNHDQAMHFAEKHLEISREVGDKSGELTARLNLSDLQMVLGLSYSTNNSIMSENTEIDSSLNGVRPKLGRRHSM
modifications: LD655 dye on the SNAP tag (unlabeled LGN in some assays)
notes: LGN, human, N-terminal TPR domain a.a; 1-409; cloned from pTK47_mCherry-LGN-Hardened; The methods say 'C-terminal SNAP or mNG'; the LD655 labelling implies SNAP; also called LGN TPR; source: SF9 insect cells (baculovirus), purified (IgG Sepharose, TEV elution, Resource-Q ion exchange); not shown: His6, N-terminal, cleaved; ZZ, N-terminal, cleaved; SNAP, C-terminal, kept

Key:
[1] = molecular target: the molecule itself; test: mass photometry; single protein diluted to 5-20 nM in 50 mM HEPES pH 7.4, 150 mM NaCl, 1 mM EGTA, 10% glycerol; TwoMP mass photometer
[2] = molecular target: microtubules (pig brain tubulin) (pig, UniProt P02550 1-451; Q767L7 1-444, Cy3 or Cy5 and biotin labels on a fraction of the tubulin | Cy3 or Cy5 and biotin labels on a fraction of the tubulin); test: TIRF imaging of fluorescent protein on surface-immobilised microtubules; Cy3/biotin taxol-stabilised MTs immobilised by streptavidin; serial dilutions of mNG-fused NuMA constructs in MBC buffer (30 mM HEPES pH 7.4, 5 mM MgSO4, 1 mM EGTA, 100 mM KAc, casein, pluronic, methylcellulose); apparent Kd from a fit to a binding isotherm; settings: both partners purified
NuMA C = molecular target: B4; test: mass photometry; NuMA C and LGN mixed in equimolar (20 nM) concentrations; mass photometry buffer; settings: both partners purified

Binder | stoichiometry N [1] | Kd [2] [nM] | also measured
B1 | 2 |  | 
B2 | 2 |  | 
B3 |  | 28 | 
B4 |  | 390 | 
B5 | 2 |  | 
B6 |  |  | stoichiometry N (NuMA C): 3 LGN per 3 NuMA C
